Results published in paper PMC8041783.

Target: His-FliI(R33A) (Salmonella enterica) (UniProt P26465)

“His-FliI(R33A) (from UniProt P26465 1-456) (enzyme)” gave an ATPase activity (Malachite Green assay, 4 mM ATP) at 17 to 85 nM FliI(R33A) (nmol of phosphate min^−1 μg^−1) of 1.21.
